From PMC10470887 come the findings set out here.

The assay concerns the target SpGrx3 R47F mutant (Sphingomonas sp. PAMC 26621). As to the kind of experiment: SEC; Superdex 200 prep grade XK16 column; 50 mM Tris·HCl, 50 mM NaCl, pH 8.0; molecular weight against a protein standard mix.

Substance SpGrx3 R47F mutant (enzyme) yielded a stoichiometry N of 2.
